Substitutions are numbered along the chain they refer to.
Legend:
Assay in all cases: high-throughput RNA pulldown from lysate on Ni-NTA beads; HRP: 50 mM Tris pH 8, 150 mM NaCl, 1 mM beta-mercaptoethanol, 50 ug/ml BSA, 3 ug/ml yeast RNA, 0.5% heparin; ITC and FP: Tris pH 8, 200 mM KCl, 5% glycerol; MST: 50 mM Tris pH 8, 200 mM NaCl, 1 mM DTT, BSA, heparin, 0.05% Tween 20
Details in all cases: tags: N-terminal His-eGFP
[1] = molecular target: T1, GFP-9S library array, motif 4 ND N98I;D124T (synthetic construct, N98I;D124T)
T1 chain: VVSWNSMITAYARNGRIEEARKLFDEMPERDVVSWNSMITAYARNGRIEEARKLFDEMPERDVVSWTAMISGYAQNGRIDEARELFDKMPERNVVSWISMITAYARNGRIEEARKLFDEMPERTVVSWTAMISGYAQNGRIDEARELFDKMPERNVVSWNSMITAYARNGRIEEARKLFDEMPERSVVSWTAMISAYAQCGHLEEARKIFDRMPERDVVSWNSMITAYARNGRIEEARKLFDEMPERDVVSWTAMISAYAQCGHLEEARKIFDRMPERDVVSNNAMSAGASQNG

[2] = molecular target: T2, GFP-9S library array, motif 4 ND D124I (synthetic construct, D124I)
T2 chain: T1 chain with I98N, T124I

[3] = molecular target: T3, GFP-9S library array, motif 4 ND N98S;D124I (synthetic construct, N98S;D124I)
T3 chain: T1 chain with I98S, T124I

[4] = molecular target: T4, GFP-9S library array, motif 4 ND D124F (synthetic construct, D124F)
T4 chain: T1 chain with I98N, T124F

[5] = molecular target: T5, GFP-9S library array, motif 4 ND N98T;D124K (synthetic construct, N98T;D124K)
T5 chain: T1 chain with I98T, T124K

With AUUAGACGUGA (ssRNA) [Cy5-rpoA-G] the Kd ([1]; label: 5' Cy5) was 145 nM, the Kd ([2]; label: 5' Cy5) was 86.2 nM and the Kd ([3]; label: 5' Cy5) was 71.4 nM. It also gave a Kd ([4]; label: 5' Cy5) of 140 nM and a Kd ([5]; label: 5' Cy5) of 131 nM.

Work on AUUACACGUGA (ssRNA) [Cy5-rpoA] yielded a Kd ([1]; label: 5' Cy5) of 141 nM, a Kd ([2]; label: 5' Cy5) of 53.8 nM and a Kd ([3]; label: 5' Cy5) of 74.7 nM. It also gave a Kd ([4]; label: 5' Cy5) of 109 nM and a Kd ([5]; label: 5' Cy5) of 131 nM.

With AUUAUACGUGA (ssRNA) [IR-rpoA-U] the Kd ([1]; label: 5' IRDye 800CW) was 59.1 nM, the Kd ([2]; label: 5' IRDye 800CW) was 26.7 nM and the Kd ([3]; label: 5' IRDye 800CW) was 152 nM. For the same binder, the Kd ([4]; label: 5' IRDye 800CW) was 63.9 nM and the Kd ([5]; label: 5' IRDye 800CW) was 81.9 nM.

For AUUAAACGUGA (ssRNA) [IR-rpoA-A], the Kd ([1]; label: 5' IRDye 800CW) was 158 nM, the Kd ([2]; label: 5' IRDye 800CW) was 184 nM and the Kd ([3]; label: 5' IRDye 800CW) was 113 nM. The Kd ([4]; label: 5' IRDye 800CW) was 202 nM and the Kd ([5]; label: 5' IRDye 800CW) was 53.4 nM.
